Sequences and labels used below:
B1: H183/L072 VL N28R (antibody, name in Kabat numbering, V domains shown)
VH: QVQLVESGGGLVQPGRSLRLSCAASGFTFSNAWMHWVRQAPGKGLEWVAQIKDKGNAYAAYYAPSVKGRFTISRDDSKNSIYLQMNSLKTEDTAVYYCHYVHYASASTVLPAFGVDAWGQGTTVTVSS
VL: DIVMTQSPLSLPVTPGEPASISCQASQELVHMRRNTYLHWYQQKPGQAPRLLIYKVSNRFPGVPDRFSGSGSGTDFTLKISRVEAEDVGVYYCAQGTSVPFTFGQGTKLEIK
notes: Dual-Ig
B2: H183/L072 VL N30D (antibody, name in Kabat numbering, V domains shown)
VH: B1 VH
VL: B1 VL with R33N, N35D
notes: Dual-Ig
B3: H183/L072 VL N30S (antibody, name in Kabat numbering, V domains shown)
VH: B1 VH
VL: B1 VL with R33N, N35S
notes: Dual-Ig
B4: H183/L072 VL N28T (antibody, name in Kabat numbering, V domains shown)
VH: B1 VH
VL: B1 VL with R33T
notes: Dual-Ig
B5: H183/L072 VL N53M (antibody, name in Kabat numbering, V domains shown)
VH: B1 VH
VL: B1 VL with R33N, N58M
notes: Dual-Ig
B6: H183/L072 VL N53F (antibody, name in Kabat numbering, V domains shown)
VH: B1 VH
VL: B1 VL with R33N, N58F
notes: Dual-Ig
B7: H183/L072 VL N30V (antibody, name in Kabat numbering, V domains shown)
VH: B1 VH
VL: B1 VL with R33N, N35V
notes: Dual-Ig
B8: H183/L072 VL N30E (antibody, name in Kabat numbering, V domains shown)
VH: B1 VH
VL: B1 VL with R33N, N35E
notes: Dual-Ig
B9: H183/L072 VL N53E (antibody, name in Kabat numbering, V domains shown)
VH: B1 VH
VL: B1 VL with R33N, N58E
notes: Dual-Ig
B10: H183/L072 VL N53K (antibody, name in Kabat numbering, V domains shown)
VH: B1 VH
VL: B1 VL with R33N, N58K
notes: Dual-Ig
B11: H183/L072 VL N53P (antibody, name in Kabat numbering, V domains shown)
VH: B1 VH
VL: B1 VL with R33N, N58P
notes: Dual-Ig
B12: H183/L072 VL N30W (antibody, name in Kabat numbering, V domains shown)
VH: B1 VH
VL: B1 VL with R33N, N35W
notes: Dual-Ig
B13: H183/L072 VL N28W (antibody, name in Kabat numbering, V domains shown)
VH: B1 VH
VL: B1 VL with R33W
notes: Dual-Ig
B14: H183/L072 VL P56E (antibody, name in Kabat numbering, V domains shown)
VH: B1 VH
VL: B1 VL with R33N, P61E
notes: Dual-Ig
B15: H183/L072 VL N53Q (antibody, name in Kabat numbering, V domains shown)
VH: B1 VH
VL: B1 VL with R33N, N58Q
notes: Dual-Ig
B16: H183/L072 VL N30L (antibody, name in Kabat numbering, V domains shown)
VH: B1 VH
VL: B1 VL with R33N, N35L
notes: Dual-Ig
B17: H183/L072 VL N53I (antibody, name in Kabat numbering, V domains shown)
VH: B1 VH
VL: B1 VL with R33N, N58I
notes: Dual-Ig
B18: H183/L072 VL N53V (antibody, name in Kabat numbering, V domains shown)
VH: B1 VH
VL: B1 VL with R33N, N58V
notes: Dual-Ig
B19: H183/L072 VL N30I (antibody, name in Kabat numbering, V domains shown)
VH: B1 VH
VL: B1 VL with R33N, N35I
notes: Dual-Ig
B20: H183/L072 VL N53T (antibody, name in Kabat numbering, V domains shown)
VH: B1 VH
VL: B1 VL with R33N, N58T
notes: Dual-Ig
B21: H183/L072 VL N30G (antibody, name in Kabat numbering, V domains shown)
VH: B1 VH
VL: B1 VL with R33N, N35G
notes: Dual-Ig
B22: H183/L072 VL N30Q (antibody, name in Kabat numbering, V domains shown)
VH: B1 VH
VL: B1 VL with R33N, N35Q
notes: Dual-Ig
B23: H183/L072 VL N30M (antibody, name in Kabat numbering, V domains shown)
VH: B1 VH
VL: B1 VL with R33N, N35M
notes: Dual-Ig
B24: H183/L072 VL N53L (antibody, name in Kabat numbering, V domains shown)
VH: B1 VH
VL: B1 VL with R33N, N58L
notes: Dual-Ig
B25: H183/L072 VL N30T (antibody, name in Kabat numbering, V domains shown)
VH: B1 VH
VL: B1 VL with R33N, N35T
notes: Dual-Ig
B26: H183/L072 VL N30P (antibody, name in Kabat numbering, V domains shown)
VH: B1 VH
VL: B1 VL with R33N, N35P
notes: Dual-Ig
B27: H183/L072 VL N53S (antibody, name in Kabat numbering, V domains shown)
VH: B1 VH
VL: B1 VL with R33N, N58S
notes: Dual-Ig
B28: H183/L072 VL N30K (antibody, name in Kabat numbering, V domains shown)
VH: B1 VH
VL: B1 VL with R33N, N35K
notes: Dual-Ig
B29: H183/L072 VL N28S (antibody, name in Kabat numbering, V domains shown)
VH: B1 VH
VL: B1 VL with R33S
notes: Dual-Ig
B30: H183/L072 VL P56D (antibody, name in Kabat numbering, V domains shown)
VH: B1 VH
VL: B1 VL with R33N, P61D
notes: Dual-Ig
B31: H183/L072 VL N53D (antibody, name in Kabat numbering, V domains shown)
VH: B1 VH
VL: B1 VL with R33N, N58D
notes: Dual-Ig
B32: H183/L072 VL N30A (antibody, name in Kabat numbering, V domains shown)
VH: B1 VH
VL: B1 VL with R33N, N35A
notes: Dual-Ig
B33: H183/L072 VL N30F (antibody, name in Kabat numbering, V domains shown)
VH: B1 VH
VL: B1 VL with R33N, N35F
notes: Dual-Ig
B34: H183/L072 VL P56A (antibody, name in Kabat numbering, V domains shown)
VH: B1 VH
VL: B1 VL with R33N, P61A
notes: Dual-Ig
B35: H183/L072 VL N30Y (antibody, name in Kabat numbering, V domains shown)
VH: B1 VH
VL: B1 VL with R33N, N35Y
notes: Dual-Ig
B36: H183/L072 VL N28Y (antibody, name in Kabat numbering, V domains shown)
VH: B1 VH
VL: B1 VL with R33Y
notes: Dual-Ig
B37: H183/L072 VL N53A (antibody, name in Kabat numbering, V domains shown)
VH: B1 VH
VL: B1 VL with R33N, N58A
notes: Dual-Ig
B38: H183/L072 VL N53G (antibody, name in Kabat numbering, V domains shown)
VH: B1 VH
VL: B1 VL with R33N, N58G
notes: Dual-Ig
B39: H183/L072 VL N28V (antibody, name in Kabat numbering, V domains shown)
VH: B1 VH
VL: B1 VL with R33V
notes: Dual-Ig
B40: H183/L072 VL N53H (antibody, name in Kabat numbering, V domains shown)
VH: B1 VH
VL: B1 VL with R33N, N58H
notes: Dual-Ig
B41: H183/L072 VL N30H (antibody, name in Kabat numbering, V domains shown)
VH: B1 VH
VL: B1 VL with R33N, N35H
notes: Dual-Ig
B42: H183/L072 VL N53R (antibody, name in Kabat numbering, V domains shown)
VH: B1 VH
VL: B1 VL with R33N, N58R
notes: Dual-Ig
B43: H183/L072 VL N30R (antibody, name in Kabat numbering, V domains shown)
VH: B1 VH
VL: B1 VL with R33N, N35R
notes: Dual-Ig
B44: H183/L072 VL N53W (antibody, name in Kabat numbering, V domains shown)
VH: B1 VH
VL: B1 VL with R33N, N58W
notes: Dual-Ig

Numbering of substitutions follows the chain as printed.

T1 sequence (chain, as listed by the source limits assumed): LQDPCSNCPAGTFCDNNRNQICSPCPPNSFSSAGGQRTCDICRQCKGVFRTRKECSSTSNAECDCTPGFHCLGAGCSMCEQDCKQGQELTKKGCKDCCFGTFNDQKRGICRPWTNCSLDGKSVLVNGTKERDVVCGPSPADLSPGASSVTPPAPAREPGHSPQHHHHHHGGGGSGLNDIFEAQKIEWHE

This assay addresses T1, Human CD137 ECD (human).
T1 construct: entry includes C-terminal His-tag and biotin acceptor peptide; also called human CD137 extracellular domain; 4-1BB
In words: Biacore SPR, vs parent H183/L072.
As for B1, the “fold change of affinity” value was 0.4 fold.

With B2, the “fold change of affinity” value worked out at 0.1 fold.

As to B3, the “fold change of affinity” value is 0.2 fold.

As to B4, the “fold change of affinity” value came out at 0.5 fold.

Take B5: the “fold change of affinity” value amounted to 0.1 fold.

Regarding B6, the “fold change of affinity” value amounted to 0.3 fold.

As to B7, the “fold change of affinity” value stood at 0.7 fold.

For B8, the “fold change of affinity” value stood at 0.1 fold.

Turning to B9, the “fold change of affinity” value was 0.2 fold.

In the case of B10, the “fold change of affinity” value came to 0.2 fold.

Take B11: the “fold change of affinity” value was found to be 0 fold.

Regarding B12, the “fold change of affinity” value came to 0.9 fold.

B13: the “fold change of affinity” value worked out at 0.3 fold.

With B14, the “fold change of affinity” value amounted to 0.1 fold.

With B15, the “fold change of affinity” value came out at 0.4 fold.

Turning to B16, the “fold change of affinity” value was found to be 0.3 fold.

As for B17, the “fold change of affinity” value is 0.2 fold.

Turning to B18, the “fold change of affinity” value is 0.5 fold.

As to B19, the “fold change of affinity” value was found to be 0.3 fold.

In the case of B20, the “fold change of affinity” value amounted to 0 fold.

For the molecule B21, the “fold change of affinity” value is 0.9 fold.

For the molecule B22, the “fold change of affinity” value came to 1 fold.

Take B23: the “fold change of affinity” value is 1.8 fold.

In the case of B24, the “fold change of affinity” value was determined as 0.2 fold.

For the molecule B25, the “fold change of affinity” value amounted to 0.3 fold.

With B26, the “fold change of affinity” value came to 0.4 fold.

As for B27, the “fold change of affinity” value amounted to 0.5 fold.

For the molecule B28, the “fold change of affinity” value was 0.6 fold.

Take B29: the “fold change of affinity” value amounted to 0.5 fold.

Regarding B30, the “fold change of affinity” value came to 0.2 fold.

For B31, the “fold change of affinity” value was determined as 0.3 fold.

With B32, the “fold change of affinity” value was 0.7 fold.

On to B33, for which the “fold change of affinity” value was found to be 0.9 fold.

Take B34: the “fold change of affinity” value amounted to 0.1 fold.

As for B35, the “fold change of affinity” value came out at 0.6 fold.

B36: the “fold change of affinity” value was 0.4 fold.

As to B37, the “fold change of affinity” value came to 0.7 fold.

In the case of B38, the “fold change of affinity” value is 0.6 fold.

For the molecule B39, the “fold change of affinity” value stood at 0.3 fold.

With B40, the “fold change of affinity” value is 0.5 fold.

For B41, the “fold change of affinity” value came to 1 fold.

Consider B42, for which the “fold change of affinity” value stood at 0.3 fold.

As for B43, the “fold change of affinity” value is 0.5 fold.

B44: the “fold change of affinity” value was 0 fold.

For the origin of these results see patent publication US20210388087A1 (Chugai, published 2021).
